For experiment [1], the target named is Toc90 (Chlamydomonas reinhardtii). Nature of the experiment: cryo-EM structure.
The target of experiment [2] is Toc75 (Chlamydomonas reinhardtii). Nature of the experiment: cryo-EM structure.

For the molecule Toc75 (natural protein), in experiment [1], the stoichiometry N was found to be 1.

B1: Toc34 (natural protein)
chain: MAQPPRPAEEYDDDVQEDEDELKEGELDDDESHEAASEGGEAAAGDEEAEDDEQDEEDGDEDSQPWAGLNRLPERDDMLDILNELRAEGRKQLTVLLLGKSSVGKSSLINSLLGEAVVRVQAFKLQADTDITTTVVRQVAVGNSEVDGFRLKLIDTCGLEDPEAGDTVNLGALSKIAEDVRGVGIDVVLYCDRLDLYRVDPLDKAIIDAISSTFGRGIWRRTVVALTHANLVQTPPGTDYDSFVNGRVRLIRGAVRGPLFFRPSLPVALVENSETCPVSSESGFRVLPDGEPWLVALVSQLVDMAAARRRPYKYHPRLSSKPSHRFRWLLPVAIAAEVLFYRRFLHPRLDDNQRRVEREEERVWALRGQQRRALGLHRPHRPDKDAAWRLEQMYDDD
On to B1, for which the stoichiometry N in experiment [2] was 1.

These data come from doi:10.1101/2022.11.20.517165.
